Reference: patent publication US20230242602

Legend:
[1] = test system: ZFP-TF 65918.T2A.57890 (two co-expressed ZFPs) (synthetic construct); experiment: cell_activity; settings: htau mouse hippocampus, 3E9 VG per hemisphere
[2] = test system: ZFP-TF 73133 (R→Q variant anti-tau ZFP-KRAB) (synthetic construct); experiment: cell_activity; settings: up to, htau mouse hippocampus, AAV9 highest dose, 3 and 6 months

Substance	activity (% reduction of mouse tau mRNA) [1]	activity (% reduction of human tau mRNA) [1]	activity (% reduction of human tau mRNA) [2]
mouse Mapt gene	> 50		
human MAPT gene target region (around TSS)		> 50	93
